Results from PMC3593967 (Molecular pharmaceutics, 2013).
Bridge positions count the residues as written; N and C are the ends. Square brackets hold non-standard residues; d marks the D form. Peptide text beside a SMILES is read from it. * marks the point of attachment. DOTA(p-xylylenediamine) = O=C(O)CN1CCN(CC(=O)O)CCN(CC(=O)NCc2ccc(CN*)cc2)CCN(CC(=O)O)CC1; DOTA = O=C(O)CN1CCN(CC(=O)O)CCN(CC(=O)*)CCN(CC(=O)O)CC1; Tyr(3-Cl) = N[C@@H](Cc1ccc(O)c(Cl)c1)C(=O)O; Hyp = O=C(O)[C@@H]1C[C@@H](O)CN1

What was measured:
[1] = Biodistribution in rat model of carotid artery thrombosis; assay type: in vivo; conditions: male, Wistar, in vivo, iv, total radioactivity, Biodistribution
[2] = test system: arterial thrombus; assay: as above; assay type: in vivo; conditions: 120 min post injection, ratio of %ID/g

Row | Structure (SMILES) | tissue uptake at 2 h ([1]; blood) [%ID/g] | tissue uptake at 2 h ([1]; bone) [%ID/g] | tissue uptake at 2 h ([1]; brain) [%ID/g] | tissue uptake at 2 h ([1]; clot) [%ID/g] | tissue uptake at 2 h ([1]; heart) [%ID/g] | tissue uptake at 2 h ([1]; intestine) [%ID/g] | tissue uptake at 2 h ([1]; kidney) [%ID/g] | tissue uptake at 2 h ([1]; liver) [%ID/g] | tissue uptake at 2 h ([1]; lungs) [%ID/g] | tissue uptake at 2 h ([1]; muscle) [%ID/g] | tissue uptake at 2 h ([1]; spleen) [%ID/g] | thrombus uptake relative to blood [2]
1 | CC[C@H](C)[C@H](NC(=O)[C@H](Cc1c[nH]c2ccccc12)NC(=O)[C@@H]1CSSC[C@H](NC(=O)[C@H](CCC(=O)O)NC(=O)[C@H](Cc2c[nH]c3ccccc23)NC(=O)CN2CCN(CC(=O)O)CCN(CC(=O)O)CCN(CC(=O)O)CC2)C(=O)N2C[C@H](O)C[C@H]2C(=O)N[C@@H](Cc2ccc(O)c(Cl)c2)C(=O)NCC(=O)N[C@@H](CC(C)C)C(=O)N1)C(=O)N[C@@H](CCC(N)=O)C(=O)NCc1ccc(CNC(=O)CN2CCN(CC(=O)O)CCN(CC(=O)O)CCN(CC(=O)O)CC2)cc1 [FBP3] ({DOTA}-WEC[Hyp][Tyr(3-Cl)]GLCWIQ-{DOTA(p-xylylenediamine)}; disulfide 3-8) | 0.184 ± 0.026 | 0.041 ± 0.011 | 0.011 ± 0.003 | 0.183 ± 0.088 | 0.082 ± 0.01 | 0.184 ± 0.053 | 0.621 ± 0.186 | 1.46 ± 0.292 | 0.066 ± 0.008 | 0.009 ± 0.001 | 0.04 ± 0.006 | no difference
2 | CC[C@H](C)[C@H](NC(=O)[C@H](Cc1c[nH]cn1)NC(=O)[C@@H]1CSSC[C@H](NC(=O)[C@H](Cc2c[nH]cn2)NC(=O)[C@H](Cc2ccccc2)NC(=O)CN2CCN(CC(=O)O)CCN(CC(=O)O)CCN(CC(=O)O)CC2)C(=O)N2C[C@H](O)C[C@H]2C(=O)N[C@@H](Cc2ccc(O)c(Cl)c2)C(=O)N[C@@H](CC(=O)O)C(=O)N[C@@H](CC(C)C)C(=O)N1)C(=O)N[C@@H](CC(C)C)C(=O)NCc1ccc(CNC(=O)CN2CCN(CC(=O)O)CCN(CC(=O)O)CCN(CC(=O)O)CC2)cc1 [FBP2] ({DOTA}-FHC[Hyp][Tyr(3-Cl)]DLCHIL-{DOTA(p-xylylenediamine)}; disulfide 3-8) | 0.164 ± 0.016 | 0.043 ± 0.015 | 0.017 ± 0.004 | 0.445 ± 0.102 | 0.074 ± 0.011 | 0.278 ± 0.095 | 2.72 ± 0.848 | 0.617 ± 0.187 | 0.048 ± 0.01 | 0.012 ± 0.003 | 0.071 ± 0.016 | > 2.5 fold
3 | CC[C@H](C)[C@H](NC(=O)[C@H](Cc1ccc(O)cc1)NC(=O)[C@@H]1CSSC[C@H](NC(=O)[C@@H](CCC(=O)O)NC(=O)[C@H](Cc2ccc(O)cc2)NC(=O)CN2CCN(CC(=O)O)CCN(CC(=O)O)CCN(CC(=O)O)CC2)C(=O)N2C[C@H](O)C[C@H]2C(=O)N[C@@H](Cc2ccc(O)c(Cl)c2)C(=O)NCC(=O)N[C@@H](CC(C)C)C(=O)N1)C(=O)N[C@@H](CCC(N)=O)C(=O)NCc1ccc(CNC(=O)CN2CCN(CC(=O)O)CCN(CC(=O)O)CCN(CC(=O)O)CC2)cc1 [FBP1] ({DOTA}-Y[dE]C[Hyp][Tyr(3-Cl)]GLCYIQ-{DOTA(p-xylylenediamine)}; disulfide 3-8) | – | – | – | – | – | – | – | – | – | – | – | > 2.5 fold
